B1: BMAL1 bHLH PAS-AB (residues 62-441), chain of the CLOCK-BMAL1 heterodimer (domain or fragment)
chain: not shown
notes: BMAL1, mouse, bHLH PAS-AB, residues 62-441; Always present as part of m1; made a molecule of its own for the contacts that the structures and cross-links assign to BMAL1

Data set [1] concerns the target histone H3.1 (human), in the nucleosome (human, UniProt P68431 1-136). Briefly: cross-linking; XL-MS with DSSO, TF and nucleosome mixed 1.5:1; CLOCK-BMAL1 with NCP SHL−6.2. To be noted: both partners purified.
Data set [2] has as its target T1, histone H4 (human), in the nucleosome (human, UniProt P62805 1-103).
T1 construct: Always part of m4; source: in the reconstituted nucleosome
Description: cryo-EM structure; CLOCK-BMAL1 on a W601-variant nucleosome with a histone-facing E-box at SHL−6.2 (1:3 NCP:TF), GraFix cross-linked; 3.8 Å overall; PAS domains placed by Rosetta local docking with density scoring and one cross-link. To be noted: both partners purified.

Data set [3] has as its target T1, histone H4 (human), in the nucleosome. Description: cryo-EM structure; CLOCK-BMAL1 on the endogenous Por enhancer nucleosome with tandem E-boxes 7 bp apart (1:3), GraFix cross-linked; 3.8 Å overall. To be noted: both partners purified.
Data set [4] deals with B1. Briefly: cryo-EM structure; CLOCK-BMAL1 on a W601-variant nucleosome with a solvent-exposed E-box at SHL+5.8 (1:1.5 NCP:TF), GraFix glutaraldehyde cross-linked; 3.6 Å overall, PAS domains 9-11 Å. To be noted: both partners purified.
Data set [5] concerns the molecule itself. Description: cryo-EM structure; CLOCK-BMAL1 on the endogenous Por enhancer nucleosome with tandem E-boxes 7 bp apart (1:3), GraFix cross-linked; 3.8 Å overall.
Data set [6] addresses T2, mouse BMAL1 bHLH (residues 73–135) with an additional C-terminal tryptophan (mouse, UniProt Q9WTL8 73-135).
T2 construct: BMAL1, mouse, bHLH, residues 73-135; additional tryptophan engineered at the C terminus to allow for UV detection; source: E. coli vector (pET28-derived), expressed and purified separately (HisTrap HP)
Briefly: SEC; CLOCK bHLH and BMAL1 bHLH purified separately, mixed at equimolar ratios, about one hour on ice, S75 10/300 GL column. To be noted: both partners purified.

Consider four molecules from article PMC10338342, “Cooperation between bHLH transcription factors and histones for DNA access” (Nature, 2023).

As for B1, the binding result in data set [1] and in data set [2] was “binds” throughout.

B2: CLOCK bHLH PAS-AB (residues 26-395), chain of the CLOCK-BMAL1 heterodimer (domain or fragment, mouse, UniProt O08785 26-395, looked up)
chain: VEEDDKDKAKRVSRNKSEKKRRDQFNVLIKELGSMLPGNARKMDKSTVLQKSIDFLRKHKETTAQSDASEIRQDWKPTFLSNEEFTQLMLEALDGFFLAIMTDGSIIYVSESVTSLLEHLPSDLVDQSIFNFIPEGEHSEVYKILSTHLLESDSLTPEYLKSKNQLEFCCHMLRGTIDPKEPSTYEYVRFIGNFKSLTSVSTSTHNGFEGTIQRTHRPSYEDRVCFVATVRLATPQFIKEMCTVEEPNEEFTSRHSLEWKFLFLDHRAPPIIGYLPFEVLGTSGYDYYHVDDLENLAKCHEHLMQYGKGKSCYYRFLTKGQQWIWLQTHYYITYHQWNSRPEFIVCTHTVVSYAEVRAERRRELGIEESL
notes: CLOCK, mouse, bHLH PAS-AB, residues 26-395; Always present as part of m1; made a molecule of its own for the contacts that the structures and cross-links assign to CLOCK
As to B2, the binding result in data set [3] and in data set [4] was “binds” each time.

B3: CLOCK-BMAL1 bHLH PAS-AB heterodimer (complex)
chain 1: VEEDDKDKAKRVSRNKSEKKRRDQFNVLIKELGSMLPGNARKMDKSTVLQKSIDFLRKHKETTAQSDASEIRQDWKPTFLSNEEFTQLMLEALDGFFLAIMTDGSIIYVSESVTSLLEHLPSDLVDQSIFNFIPEGEHSEVYKILSTHLLESDSLTPEYLKSKNQLEFCCHMLRGTIDPKEPSTYEYVRFIGNFKSLTSVSTSTHNGFEGTIQRTHRPSYEDRVCFVATVRLATPQFIKEMCTVEEPNEEFTSRHSLEWKFLFLDHRAPPIIGYLPFEVLGTSGYDYYHVDDLENLAKCHEHLMQYGKGKSCYYRFLTKGQQWIWLQTHYYITYHQWNSRPEFIVCTHTVVSYAEVRAERRRELGIEESL
chain 2: not shown
notes: CLOCK, mouse, bHLH PAS-AB, residues 26-395; BMAL1, mouse, bHLH PAS-AB, residues 62-441; also called CB; CLOCK-BMAL1 WT; source: insect cells (Spodoptera frugiperda or Hi5), purified (Ni-NTA, TEV cleavage, heparin, Superdex 200); copies: 1 + 1
As for B3, the binding result in data set [5] is reported as “binds”.

B4: mouse CLOCK bHLH (residues 29–89) with an additional C-terminal tryptophan (domain or fragment)
chain: DDKDKAKRVSRNKSEKKRRDQFNVLIKELGSMLPGNARKMDKSTVLQKSIDFLRKHKETTAW
notes: CLOCK, mouse, bHLH, residues 29-89; additional tryptophan engineered at the C terminus to allow for UV detection; source: E. coli vector (pET28-derived), expressed and purified separately (HisTrap HP)
For B4, the binding result in data set [6] is on record as “binds”.
